From article PMC11310338
Like-named read-outs stand apart in the source and are kept apart here.

T1: SCAF8-CID (human, UniProt Q9UPN6 1-139)
T1 sequence: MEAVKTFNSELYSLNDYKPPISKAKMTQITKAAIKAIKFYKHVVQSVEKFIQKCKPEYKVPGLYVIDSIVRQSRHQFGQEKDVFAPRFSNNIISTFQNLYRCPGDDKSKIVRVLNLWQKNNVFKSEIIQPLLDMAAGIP

T2: SCAF4-CID (human, UniProt O95104 1-139)
T2 sequence: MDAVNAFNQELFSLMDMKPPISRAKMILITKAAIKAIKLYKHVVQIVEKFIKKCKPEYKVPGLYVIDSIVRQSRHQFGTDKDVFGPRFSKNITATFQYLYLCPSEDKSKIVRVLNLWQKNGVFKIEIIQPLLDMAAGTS


Assays:
[1] = molecular target: T1, SCAF8-CID; assay: competition FP
[2] = molecular target: T2, SCAF4-CID; assay: fluorescence polarization
[3] = molecular target: T2, SCAF4-CID; assay: competition FP
[4] = molecular target: T2, SCAF4-CID; assay: SPR
[5] = molecular target: T1, SCAF8-CID; assay: SPR
[6] = molecular target: T2, SCAF4-CID; assay: competition FP; remark: listed apart in the source
[7] = molecular target: T3, WDR5 (human, UniProt P61964 1-334); assay: competition FP
[8] = molecular target: T3, WDR5; assay: fluorescence polarization
[9] = molecular target: WDR5 L240K (human, UniProt P61964 1-334, L240K); assay: fluorescence polarization
[10] = molecular target: T3, WDR5; assay: SPR

| Binder | IC50 [1] | Kd [4] | Kd [5] | IC50 [6] | other results |
| --- | --- | --- | --- | --- | --- |
| GTGGG (ssDNA) [SCAF4_LS (D2_5-nt)] | 1.96 ± 0.24 µM | 0.14 ± 0.0401 µM | 0.0764 ± 0.00733 µM |  | Kd [2]: 0.189 ± 0.0401 µM; IC50 [3]: 2.75 ± 0.682 µM |
| AGGTGGGT (ssDNA) [B2_8-nt] |  | 0.297 ± 0.0481 µM |  | 1.04 ± 0.419 µM |  |
| TGGTGGGA (ssDNA) [D1_8-nt] |  |  |  | 1.27 ± 0.864 µM |  |
| GGGGTGGGGAG (ssDNA) [SRiApt-1 (F3_11-nt)] | 1.5 ± 0.69 µM | 0.0584 ± 0.0058 µM | 0.0563 ± 0.00742 µM |  |  |
| CAGGTGGGTTC (ssDNA) [SRiApt-2 (F7_11-nt_B)] | 2.69 ± 1.43 µM |  | 0.0905 ± 0.0258 µM | 0.4 ± 0.143 µM |  |
| TTAAAGGGGTGGGGAGTCAT (ssDNA) [SRiApt-3] | 0.291 ± 0.0197 µM | 0.0227 ± 0.001 µM |  | 0.285 ± 0.0266 µM |  |
| GGACC (ssDNA) [WDR5 lead sequence (H4)] |  |  |  |  | IC50 [7]: 8.5 ± 4.25 µM |
| GGGGGCTGGACCCCTCAACT (structured_DNA) [WMiApt-1] |  |  |  |  | IC50 [7]: 0.431 ± 0.134 µM; Kd [8]: 0.797 ± 0.0952 µM; binding result [9]: binds; Kd [10]: 0.138 ± 0.0867 µM |
| GGTGGGGA (ssDNA) [F1_8-nt] |  | 0.0886 ± 0.0151 µM |  | 0.554 ± 0.106 µM |  |
